Results reported in patent US8734776B2 (ZymoGenetics, Inc., priority 2003, dated 2014).

Tests used:
[1] = system: adenoviral vector, AdGFP; experiment: Adenoviral (AdGFP) liver pathology in mice; assay type: in vivo, mouse; details: C57Bl/6 mice
Procedure: When injected intravenously, these viruses primarily target the liver for gene expression. The adenoviruses are replication deficient, but cause liver damage due to inflammatory cell infiltrate that can be monitored by measurement of serum levels of liver enzymes like AST and ALT, or by direct examination of liver pathology.
C57B116 mice were given once daily intraperitoneal injections of 50 μg mouse IL-28 (zcyto24 as shown in SEQ ID NO:8) or metIL-29C172S—PEG for 3 days. Control animals were injected with PBS. One hour following the 3rd dose, mice were given a single bolus intravenous tail vein injection of the adenoviral vector, AdGFP (1×10^9 plaque-forming units (pfu)). Following this, every other day mice were given an additional dose of PBS, mouse IL-28 or metIL-29C172S—PEG for 4 more doses (total of 7 doses). One hour following the final dose of PBS, mouse IL-28 or metIL-29C172S—PEG mice were terminally bleed and sacrificed. The serum and liver tissue were analyzed. Serum was analyzed for AST and ALT liver enzymes. Liver was isolated and analyzed for GFP expression and histology. For histology, liver specimens were fixed in formalin and then embedded in paraffin followed by H&E staining. Sections of liver that had been blinded to treat were examined with a light microscope. Changes were noted and scored on a scale designed to measure liver pathology and inflammation.

[2] = system: ISRE signaling in HepG2 cells; details: 100 ng/ml; 4-hour
[3] = system: encephelomyocarditis virus; experiment: Antiviral assay: cytopathic effect in HeLa cells; assay type: cell-based, human
[4] = system: Mouse B cells; experiment: Mouse B cell 3H-thymidine incorporation; assay type: cell-based
Procedure: Mouse B cells were isolated from 2 Balb/C spleens (7 months old) by depleting CD43+ cells using MACS magnetic beads. Purified B cells were cultured in vitro with LPS, anti-IgM or anti-CD40 monoclonal antibodies. Mouse IL-28 or mouse IFNα was added to the cultures and ^3H-thymidine was added at 48 hrs. and ^3H-thymidine incorporation was measured after 72 hrs. culture.

[5] = system: encephelomyocarditis virus; experiment: Antiviral assay: cytopathic effect in L929 cells; assay type: cell-based, mouse
[6] = system: AML-12 cells; experiment: ISG induction in mouse liver cell line AML-12 (real-time PCR); assay type: cell-based; details: 20 ng/ml, 48 hour time point

B1: zcyto24: mouse IL-28, SEQ ID NO:8 (protein, listed as Mus musculus)
chain: MKPETAGGHMLLLLLPLLLAAVLTRTQADPVPRATRLPVEAKDCHIAQFKSLSPKELQAFKKAKDAIEKRLLEKDLRCSSHLFPRAWDLKQLQVQERPKALQAEVALTLKVWENMTDSALATILGQPLHTLSHIHSQLQTCTQLQATAEPRSPSRRLSRWLHRLQEAQSKETPGCLEASVTSNLFRLLTRDLKCVANGDQCV
modifications: SIGNAL (1)...(28)
- liver histology: liver and inflammation scores versus PBS-treated group [1]: lower liver and inflammation scores
- average serum AST ([1]; 50 μg i.p., 7 doses, n=8): 193 U/L
- relative liver fluorescence ([1]; 50 μg i.p., 7 doses, n=8): 34.5 arbitrary units
- serum ALT ([1]; 50 μg i.p., 7 doses, n=8): 216 U/L
- Fold Induction of Cytokine-dependent ISRE Signaling in HepG2 Cells [2]: 4.7 fold
- Percentage Cytopathic Effect ([3]; relative CM concentration .008X): 0%
- Percentage Cytopathic Effect ([3]; relative CM concentration .0156X): 0%
- Percentage Cytopathic Effect ([3]; relative CM concentration .0325X): 0%
- Percentage Cytopathic Effect ([3]; relative CM concentration .0625X): 0%
- Percentage Cytopathic Effect ([3]; relative CM concentration .125X): 0%
- Percentage Cytopathic Effect ([3]; relative CM concentration .25X): 0%
- Percentage Cytopathic Effect ([3]; relative CM concentration .5X): 0%
- 3H-thymidine incorporation by mouse B cells ([4]; stimulated with LPS or anti-IgM, IFNα 10 ng/ml, mouse IL-28 any concentration including 1000 ng/ml): did not inhibit
- 3H thymidine incorporation by mouse B cells ([4]; stimulated with anti-CD40 MAb): increased
- Percentage Cytopathic Effect ([5]; relative CM conc. .008X): 87%
- Percentage Cytopathic Effect ([5]; relative CM conc. .0156X): 87%
- Percentage Cytopathic Effect ([5]; relative CM conc. .0325X): 87%
- Percentage Cytopathic Effect ([5]; relative CM conc. .0625X): 87%
- Percentage Cytopathic Effect ([5]; relative CM conc. .125X): 87%
- Percentage Cytopathic Effect ([5]; relative CM conc. .25X): 87%
- Percentage Cytopathic Effect ([5]; relative CM conc. .5X): 87%
- Mx1 expression relative to HPRT [6]: 0.08
- OAS expression relative to HPRT [6]: 0.04
- PkR expression relative to HPRT [6]: 0.02
